Results published in patent US20060286609A1 (BIOCHECK, published 2006).
Numbering of substitutions follows the chain as printed.

How the values were obtained:
Mouse Id4: Histidine [1] = target: T1, Mouse Id4: Histidine (mouse, UniProt P41139 1-161, limits assumed); assay: ELISA, coated antigen, Ab 0.250 ug/ml
T1 construct: E. coli fusion protein (vector pGW07); also called m-Id4: His; not shown: His-tag
T1 sequence (looked up): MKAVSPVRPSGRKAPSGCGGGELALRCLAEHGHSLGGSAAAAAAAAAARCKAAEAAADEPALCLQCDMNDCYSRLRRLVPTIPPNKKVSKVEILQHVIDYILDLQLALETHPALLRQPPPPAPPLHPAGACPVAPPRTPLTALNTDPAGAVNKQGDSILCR

Human Id4: Histidine [2] = target: T2, Human Id4: Histidine (human, UniProt P47928 1-161, limits assumed); assay: ELISA, coated antigen, Ab 0.250 ug/ml
T2 construct: E. coli fusion protein (vector pGW07); also called h-Id4: His; not shown: His-tag
T2 sequence (looked up): T1 sequence (looked up) with L125H, A130T, V133A

Mouse Id1: Histidine [3] = target: T3, Mouse Id1: Histidine (mouse, UniProt P20067-2 1-148); assay: ELISA, coated antigen, Ab 0.250 ug/ml
T3 construct: E. coli fusion protein (vector pGW07); also called m-Id1-His; not shown: His-tag
T3 sequence: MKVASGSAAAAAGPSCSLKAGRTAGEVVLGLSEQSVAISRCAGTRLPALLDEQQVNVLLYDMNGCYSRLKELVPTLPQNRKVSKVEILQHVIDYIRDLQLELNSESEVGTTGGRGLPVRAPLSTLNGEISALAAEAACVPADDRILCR

Human Id3: Histidine [4] = target: T4, Human Id3: Histidine (human, UniProt Q02535 1-119, limits assumed); assay: ELISA, coated antigen, Ab 0.250 ug/ml
T4 construct: E. coli fusion protein (vector pGW07); also called h-Id3: His; not shown: His-tag
T4 sequence (looked up): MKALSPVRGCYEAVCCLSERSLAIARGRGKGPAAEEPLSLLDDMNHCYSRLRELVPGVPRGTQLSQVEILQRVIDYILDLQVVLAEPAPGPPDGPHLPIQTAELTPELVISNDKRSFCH

Human Id2: Histidine [5] = target: T5, Human Id2: Histidine (human, UniProt Q02363 1-134, limits assumed); assay: ELISA, coated antigen, Ab 0.250 ug/ml
T5 construct: E. coli fusion protein (vector pGW07); also called h-Id2: His; not shown: His-tag
T5 sequence (looked up): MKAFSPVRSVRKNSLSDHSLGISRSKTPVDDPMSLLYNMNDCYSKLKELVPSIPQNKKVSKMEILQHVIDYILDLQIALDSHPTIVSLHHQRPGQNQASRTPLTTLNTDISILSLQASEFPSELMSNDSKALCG

Mouse Id3: Histidine [6] = target: T6, Mouse Id3: Histidine (mouse, UniProt P41133 1-119, limits assumed); assay: ELISA, coated antigen, Ab 0.250 ug/ml
T6 construct: E. coli fusion protein (vector pGW07); also called m-Id3: His; not shown: His-tag
T6 sequence (looked up): T4 sequence (looked up) with G31S, A33S, A34T, N112K

Mouse Id4: Histidine [7] = target: T1, Mouse Id4: Histidine; assay: ELISA, coated antigen, Ab 0.025 ug/ml
Human Id4: Histidine [8] = target: T2, Human Id4: Histidine; assay: ELISA, coated antigen, Ab 0.025 ug/ml
Mouse Id1: Histidine [9] = target: T3, Mouse Id1: Histidine; assay: ELISA, coated antigen, Ab 0.025 ug/ml
Mouse Id2: Histidine [10] = target: T7, Mouse Id2: Histidine (mouse, UniProt P41136 1-134, limits assumed); assay: ELISA, coated antigen, Ab 0.025 ug/ml
T7 construct: E. coli fusion protein (vector pGW07); also called m-Id2: His; not shown: His-tag
T7 sequence (looked up): T5 sequence (looked up) with S60T, A131V

Human Id3: Histidine [11] = target: T4, Human Id3: Histidine; assay: ELISA, coated antigen, Ab 0.025 ug/ml
Human Id2: Histidine [12] = target: T5, Human Id2: Histidine; assay: ELISA, coated antigen, Ab 0.025 ug/ml
Mouse Id3: Histidine [13] = target: T6, Mouse Id3: Histidine; assay: ELISA, coated antigen, Ab 0.025 ug/ml
Mouse Id4: Histidine [14] = target: T1, Mouse Id4: Histidine; assay: ELISA, coated antigen, Ab 0.050 ug/ml
Human Id4: Histidine [15] = target: T2, Human Id4: Histidine; assay: ELISA, coated antigen, Ab 0.050 ug/ml
Mouse Id1: Histidine [16] = target: T3, Mouse Id1: Histidine; assay: ELISA, coated antigen, Ab 0.050 ug/ml
Mouse Id2: Histidine [17] = target: T7, Mouse Id2: Histidine; assay: ELISA, coated antigen, Ab 0.050 ug/ml
Human Id3: Histidine [18] = target: T4, Human Id3: Histidine; assay: ELISA, coated antigen, Ab 0.050 ug/ml
Human Id2: Histidine [19] = target: T5, Human Id2: Histidine; assay: ELISA, coated antigen, Ab 0.050 ug/ml
Mouse Id3: Histidine [20] = target: T6, Mouse Id3: Histidine; assay: ELISA, coated antigen, Ab 0.050 ug/ml
Mouse Id4: Histidine [21] = target: T1, Mouse Id4: Histidine; assay: ELISA, coated antigen, Ab 0.010 ug/ml
Human Id4: Histidine [22] = target: T2, Human Id4: Histidine; assay: ELISA, coated antigen, Ab 0.010 ug/ml
Human Id2: Histidine [23] = target: T5, Human Id2: Histidine; assay: ELISA, coated antigen, Ab 0.010 ug/ml

A450 (Mouse Id4: Histidine [1]) | A450 (Human Id4: Histidine [2]) | A450 (Mouse Id1: Histidine [3]) | A450 (Human Id3: Histidine [4]) | A450 (Human Id2: Histidine [5]) | A450 (Mouse Id3: Histidine [6]) | A450 (Mouse Id4: Histidine [7]) | A450 (Human Id4: Histidine [8]) | A450 (Mouse Id1: Histidine [9]) | A450 (Mouse Id2: Histidine [10]) | A450 (Human Id3: Histidine [11]) | A450 (Human Id2: Histidine [12]) | A450 (Mouse Id3: Histidine [13]) | A450 (Mouse Id4: Histidine [14]) | A450 (Human Id4: Histidine [15]) | A450 (Mouse Id1: Histidine [16]) | A450 (Mouse Id2: Histidine [17]) | A450 (Human Id3: Histidine [18]) | A450 (Human Id2: Histidine [19]) | A450 (Mouse Id3: Histidine [20]) | Substance | further results
0.053 A450 | 0.047 A450 | 0.092 A450 | 0.048 A450 | 0.056 A450 | 0.05 A450 | 0.047 A450 | 0.049 A450 | 0.053 A450 | 0.048 A450 | 0.046 A450 | 0.049 A450 | 0.046 A450 | 0.048 A450 | 0.052 A450 | 0.057 A450 | 0.05 A450 | 0.046 A450 | 0.048 A450 | 0.052 A450 | rabbit monoclonal anti-human Id1, clone #BCH-2/#5-3 (antibody) | A450 (Mouse Id4: Histidine [21]): 0.043 A450; A450 (Human Id4: Histidine [22]): 0.045 A450; A450 (Human Id2: Histidine [23]): 0.046 A450
0.048 A450 | 0.048 A450 | 2.57 A450 | 0.052 A450 | 0.057 A450 | 0.049 A450 | 0.046 A450 | 0.045 A450 | 0.876 A450 | 0.049 A450 | 0.047 A450 | 0.05 A450 | 0.047 A450 | 0.049 A450 | 0.049 A450 | 1.39 A450 | 0.054 A450 | 0.047 A450 | 0.048 A450 | 0.05 A450 | rabbit monoclonal anti-mouse/human Id1, clone #BCH-1/#195-14 (antibody) | A450 (Mouse Id4: Histidine [21]): 0.045 A450; A450 (Human Id4: Histidine [22]): 0.046 A450; A450 (Human Id2: Histidine [23]): 0.054 A450
